The values that follow come from the Human Domainome abundance scans (Beltran et al. 2025).

± gives the uncertainty stated by the source.

B1: POU domain, class 2, transcription factor 1, residues 285 to 354; numbered along this chain, P14859 (parent)
chain: LEELEQFAKTFKQRRIKLGFTQGDVGLAMGKLYGNDFSQTTISRFEALNLSFKNMCKLKPLLEKWLNDAE

The variants in this series derive from B1. The series can be described thus: abundance fitness (aPCA) (normalised: wild type 0, dead -1); higher = more abundant; growth selection in yeast, the domain comes from the species named. Conditions: Homo sapiens.
Consider LEELEQFAKTFKQRRIKLGFTQGDVGLAMGKLYGTDFSQTTISRFEALNLSFKNMCKLKPLLEKWLNDAE [N35T], for which the abundance fitness worked out at 0.002 ± 0.02.
In the case of LEELEQFAKTFKQRRIKLGFTQGDVGLAMGKLYGHDFSQTTISRFEALNLSFKNMCKLKPLLEKWLNDAE [N35H], the abundance fitness was 0.073 ± 0.046.
For LEELEQFAKTFKQRRIKLGFTQGDVGLAMGKLYGPDFSQTTISRFEALNLSFKNMCKLKPLLEKWLNDAE [N35P], the abundance fitness was -0.031 ± 0.02.
Consider LEELEQFAKTFKQRRIKLGFTQGDVGLAMGKLYGMDFSQTTISRFEALNLSFKNMCKLKPLLEKWLNDAE [N35M], for which the abundance fitness is -0.108 ± 0.22.
To LEELEQFAKTFKQRRIKLGFTQGDVGLAMGKLYGKDFSQTTISRFEALNLSFKNMCKLKPLLEKWLNDAE [N35K] belongs 0.006 ± 0.022; to LEELEQFAKTFKQRRIKLGFTQGDVGLAMGKLYGGDFSQTTISRFEALNLSFKNMCKLKPLLEKWLNDAE [N35G], 0.053 ± 0.021.
In the case of LEELEQFAKTFKQRRIKLGFTQGDVGLAMGKLYGYDFSQTTISRFEALNLSFKNMCKLKPLLEKWLNDAE [N35Y], the abundance fitness is -0.494 ± 0.36.
Regarding LEELEQFAKTFKQRRIKLGFTQGDVGLAMGKLYGIDFSQTTISRFEALNLSFKNMCKLKPLLEKWLNDAE [N35I], the abundance fitness was 0.03 ± 0.1.
On to LEELEQFAKTFKQRRIKLGFTQGDVGLAMGKLYGVDFSQTTISRFEALNLSFKNMCKLKPLLEKWLNDAE [N35V], for which the abundance fitness is -0.057 ± 0.34.
For the variant LEELEQFAKTFKQRRIKLGFTQGDVGLAMGKLYGQDFSQTTISRFEALNLSFKNMCKLKPLLEKWLNDAE [N35Q], the abundance fitness came out at 0 ± 0.021.
As for LEELEQFAKTFKQRRIKLGFTQGDVGLAMGKLYGSDFSQTTISRFEALNLSFKNMCKLKPLLEKWLNDAE [N35S], the figure is -0.038 ± 0.086; as for LEELEQFAKTFKQRRIKLGFTQGDVGLAMGKLYGRDFSQTTISRFEALNLSFKNMCKLKPLLEKWLNDAE [N35R], 0.008 ± 0.021.
On to LEELEQFAKTFKQRRIKLGFTQGDVGLAMGKLYGNAFSQTTISRFEALNLSFKNMCKLKPLLEKWLNDAE [D36A], for which the abundance fitness is -0.049 ± 0.035.
In the case of LEELEQFAKTFKQRRIKLGFTQGDVGLAMGKLYGNCFSQTTISRFEALNLSFKNMCKLKPLLEKWLNDAE [D36C], the abundance fitness is -0.036 ± 0.026.
With LEELEQFAKTFKQRRIKLGFTQGDVGLAMGKLYGNPFSQTTISRFEALNLSFKNMCKLKPLLEKWLNDAE [D36P], the abundance fitness is -0.058 ± 0.047.
In the case of LEELEQFAKTFKQRRIKLGFTQGDVGLAMGKLYGNKFSQTTISRFEALNLSFKNMCKLKPLLEKWLNDAE [D36K], the abundance fitness is -0.028 ± 0.058.
With LEELEQFAKTFKQRRIKLGFTQGDVGLAMGKLYGNSFSQTTISRFEALNLSFKNMCKLKPLLEKWLNDAE [D36S], the abundance fitness is -0.05 ± 0.029.
Turning to LEELEQFAKTFKQRRIKLGFTQGDVGLAMGKLYGNHFSQTTISRFEALNLSFKNMCKLKPLLEKWLNDAE [D36H], the abundance fitness was -0.077 ± 0.038.
To LEELEQFAKTFKQRRIKLGFTQGDVGLAMGKLYGNLFSQTTISRFEALNLSFKNMCKLKPLLEKWLNDAE [D36L] belongs 0.014 ± 0.041; to LEELEQFAKTFKQRRIKLGFTQGDVGLAMGKLYGNYFSQTTISRFEALNLSFKNMCKLKPLLEKWLNDAE [D36Y], -0.037 ± 0.03.
To LEELEQFAKTFKQRRIKLGFTQGDVGLAMGKLYGNQFSQTTISRFEALNLSFKNMCKLKPLLEKWLNDAE [D36Q] belongs -0.034 ± 0.031; to LEELEQFAKTFKQRRIKLGFTQGDVGLAMGKLYGNEFSQTTISRFEALNLSFKNMCKLKPLLEKWLNDAE [D36E], -0.027 ± 0.039; to LEELEQFAKTFKQRRIKLGFTQGDVGLAMGKLYGNFFSQTTISRFEALNLSFKNMCKLKPLLEKWLNDAE [D36F], -0.19 ± 0.062.
Take LEELEQFAKTFKQRRIKLGFTQGDVGLAMGKLYGNNFSQTTISRFEALNLSFKNMCKLKPLLEKWLNDAE [D36N]: the abundance fitness was -0.043 ± 0.068.
As to LEELEQFAKTFKQRRIKLGFTQGDVGLAMGKLYGNGFSQTTISRFEALNLSFKNMCKLKPLLEKWLNDAE [D36G], the abundance fitness is -0.092 ± 0.022.
As for LEELEQFAKTFKQRRIKLGFTQGDVGLAMGKLYGNRFSQTTISRFEALNLSFKNMCKLKPLLEKWLNDAE [D36R], the figure is -0.047 ± 0.023.
As to LEELEQFAKTFKQRRIKLGFTQGDVGLAMGKLYGNIFSQTTISRFEALNLSFKNMCKLKPLLEKWLNDAE [D36I], the abundance fitness is -0.006 ± 0.075.
Take LEELEQFAKTFKQRRIKLGFTQGDVGLAMGKLYGNVFSQTTISRFEALNLSFKNMCKLKPLLEKWLNDAE [D36V]: the abundance fitness was -0.029 ± 0.044.
As for LEELEQFAKTFKQRRIKLGFTQGDVGLAMGKLYGNMFSQTTISRFEALNLSFKNMCKLKPLLEKWLNDAE [D36M], the figure is -0.121 ± 0.12.
LEELEQFAKTFKQRRIKLGFTQGDVGLAMGKLYGNDISQTTISRFEALNLSFKNMCKLKPLLEKWLNDAE [F37I]: the abundance fitness is -0.011 ± 0.035.
To LEELEQFAKTFKQRRIKLGFTQGDVGLAMGKLYGNDDSQTTISRFEALNLSFKNMCKLKPLLEKWLNDAE [F37D] belongs 0.006 ± 0.14.
To LEELEQFAKTFKQRRIKLGFTQGDVGLAMGKLYGNDLSQTTISRFEALNLSFKNMCKLKPLLEKWLNDAE [F37L] belongs -0.003 ± 0.017; to LEELEQFAKTFKQRRIKLGFTQGDVGLAMGKLYGNDMSQTTISRFEALNLSFKNMCKLKPLLEKWLNDAE [F37M], -0.011 ± 0.028; to LEELEQFAKTFKQRRIKLGFTQGDVGLAMGKLYGNDASQTTISRFEALNLSFKNMCKLKPLLEKWLNDAE [F37A], -0.081 ± 0.033.
As to LEELEQFAKTFKQRRIKLGFTQGDVGLAMGKLYGNDCSQTTISRFEALNLSFKNMCKLKPLLEKWLNDAE [F37C], the abundance fitness came out at 0.028 ± 0.046.
With LEELEQFAKTFKQRRIKLGFTQGDVGLAMGKLYGNDKSQTTISRFEALNLSFKNMCKLKPLLEKWLNDAE [F37K], the abundance fitness is -0.184 ± 0.048.
Turning to LEELEQFAKTFKQRRIKLGFTQGDVGLAMGKLYGNDNSQTTISRFEALNLSFKNMCKLKPLLEKWLNDAE [F37N], the abundance fitness was -0.337 ± 0.068.
As for LEELEQFAKTFKQRRIKLGFTQGDVGLAMGKLYGNDESQTTISRFEALNLSFKNMCKLKPLLEKWLNDAE [F37E], the abundance fitness was -0.199 ± 0.075.
Consider LEELEQFAKTFKQRRIKLGFTQGDVGLAMGKLYGNDGSQTTISRFEALNLSFKNMCKLKPLLEKWLNDAE [F37G], for which the abundance fitness is -0.211 ± 0.027.
